In PMC2872917 one finds stoichiometry N and density of microtubule-attached beads (beads × mm^−2) data, which are given here for two substances.

The stoichiometry N is a count of units in the complex or per binding partner.

The target in experiment [1] is Dam1 complex (S. cerevisiae) (UniProt P53267). Put plainly: velocity sedimentation.
Experiment [2] addresses microtubules (UniProt Q6B856). Put plainly: bead-microtubule-binding assay.

“Dam1 complex (from UniProt P53267 1-343; Q12248 1-94)” registered a stoichiometry N in experiment [1] of 2. In experiment [2], “Ndc80 complex (from UniProt P40460 1-691; P33895 1-451)” had a density of microtubule-attached beads (beads × mm^−2) of 7800.
